Experimental data reported in the Human Domainome abundance scans (Beltran et al. 2025).
± gives the uncertainty stated by the source.

Assay: abundance fitness (aPCA) (normalised: wild type 0, dead -1); higher = more abundant; growth selection in yeast, the domain comes from the species named
Conditions: Homo sapiens

Substance | abundance fitness
BAG family molecular chaperone regulator 3 H42L, O95817 | -0.641 ± 0.18
BAG family molecular chaperone regulator 3 H42M, O95817 | -0.37 ± 0.11
BAG family molecular chaperone regulator 3 H42P, O95817 | -0.788 ± 0.13
BAG family molecular chaperone regulator 3 H42R, O95817 | -0.448 ± 0.18
BAG family molecular chaperone regulator 3 H42S, O95817 | -0.678 ± 0.25
BAG family molecular chaperone regulator 3 H42T, O95817 | -0.55 ± 0.21
BAG family molecular chaperone regulator 3 H42W, O95817 | -0.886 ± 0.14
BAG family molecular chaperone regulator 3 H42Y, O95817 | -0.55 ± 0.088
BAG family molecular chaperone regulator 3 I28A, O95817 | -0.423 ± 0.2
BAG family molecular chaperone regulator 3 I28C, O95817 | -0.375 ± 0.22
BAG family molecular chaperone regulator 3 I28D, O95817 | -0.503 ± 0.18
BAG family molecular chaperone regulator 3 I28E, O95817 | 0.316 ± 0.11
BAG family molecular chaperone regulator 3 I28G, O95817 | -0.088 ± 0.08
BAG family molecular chaperone regulator 3 I28L, O95817 | -0.444 ± 0.17
BAG family molecular chaperone regulator 3 I28M, O95817 | 0.248 ± 0.14
BAG family molecular chaperone regulator 3 I28N, O95817 | 0.206 ± 0.3
BAG family molecular chaperone regulator 3 I28P, O95817 | -0.713 ± 0.28
BAG family molecular chaperone regulator 3 I28Q, O95817 | -0.307 ± 0.22
BAG family molecular chaperone regulator 3 I28R, O95817 | 0.171 ± 0.066
BAG family molecular chaperone regulator 3 I28S, O95817 | 0.183 ± 0.083
BAG family molecular chaperone regulator 3 I28T, O95817 | -0.636 ± 0.29
BAG family molecular chaperone regulator 3 I28V, O95817 | 0.068 ± 0.1

Substance | abundance fitness
BAG family molecular chaperone regulator 3 I28Y, O95817 | -0.19 ± 0.3
BAG family molecular chaperone regulator 3 I30A, O95817 | -0.011 ± 0.11
BAG family molecular chaperone regulator 3 I30C, O95817 | 0.028 ± 0.16
BAG family molecular chaperone regulator 3 I30D, O95817 | -0.389 ± 0.14
BAG family molecular chaperone regulator 3 I30E, O95817 | -0.226 ± 0.079
BAG family molecular chaperone regulator 3 I30G, O95817 | -0.44 ± 0.087
BAG family molecular chaperone regulator 3 I30H, O95817 | -0.114 ± 0.074
BAG family molecular chaperone regulator 3 I30K, O95817 | -0.087 ± 0.2
BAG family molecular chaperone regulator 3 I30L, O95817 | 0.249 ± 0.091
BAG family molecular chaperone regulator 3 I30N, O95817 | -0.166 ± 0.28
BAG family molecular chaperone regulator 3 I30P, O95817 | -0.661 ± 0.084
BAG family molecular chaperone regulator 3 I30R, O95817 | -0.133 ± 0.084
BAG family molecular chaperone regulator 3 I30S, O95817 | -0.191 ± 0.077
BAG family molecular chaperone regulator 3 I30T, O95817 | -0.32 ± 0.2
BAG family molecular chaperone regulator 3 I30V, O95817 | 0.207 ± 0.092
BAG family molecular chaperone regulator 3 I30W, O95817 | 0.13 ± 0.12
BAG family molecular chaperone regulator 3 K29A, O95817 | -0.37 ± 0.12
BAG family molecular chaperone regulator 3 K29C, O95817 | -0.369 ± 0.24
BAG family molecular chaperone regulator 3 K29E, O95817 | -0.791 ± 0.42
BAG family molecular chaperone regulator 3 K29F, O95817 | -0.719 ± 0.45
BAG family molecular chaperone regulator 3 K29G, O95817 | -0.531 ± 0.083
BAG family molecular chaperone regulator 3 K29H, O95817 | -0.686 ± 0.16

Substance | abundance fitness
BAG family molecular chaperone regulator 3 K29I, O95817 | -0.758 ± 0.38
BAG family molecular chaperone regulator 3 K29L, O95817 | -0.376 ± 0.091
BAG family molecular chaperone regulator 3 K29M, O95817 | -0.23 ± 0.21
BAG family molecular chaperone regulator 3 K29N, O95817 | -0.75 ± 0.43
BAG family molecular chaperone regulator 3 K29P, O95817 | -0.598 ± 0.26
BAG family molecular chaperone regulator 3 K29Q, O95817 | -0.711 ± 0.28
BAG family molecular chaperone regulator 3 K29R, O95817 | -0.17 ± 0.066
BAG family molecular chaperone regulator 3 K29S, O95817 | -0.313 ± 0.11
BAG family molecular chaperone regulator 3 K29T, O95817 | -0.212 ± 0.16
BAG family molecular chaperone regulator 3 K29V, O95817 | -0.266 ± 0.11
BAG family molecular chaperone regulator 3 K29W, O95817 | -0.754 ± 0.29
BAG family molecular chaperone regulator 3 L22A, O95817 | -0.362 ± 0.17
BAG family molecular chaperone regulator 3 L22C, O95817 | 0.225 ± 0.16
BAG family molecular chaperone regulator 3 L22D, O95817 | -0.753 ± 0.42
BAG family molecular chaperone regulator 3 L22F, O95817 | -0.069 ± 0.18
BAG family molecular chaperone regulator 3 L22G, O95817 | -0.144 ± 0.13
BAG family molecular chaperone regulator 3 L22H, O95817 | -0.796 ± 0.37
BAG family molecular chaperone regulator 3 L22I, O95817 | -0.271 ± 0.15
BAG family molecular chaperone regulator 3 L22M, O95817 | 0.023 ± 0.17
BAG family molecular chaperone regulator 3 L22N, O95817 | -0.67 ± 0.34
BAG family molecular chaperone regulator 3 L22P, O95817 | -0.477 ± 0.23
